Experiment: soluble on expression in E. coli; label from the status in PepcDB or PDB records

| Sequence | soluble on expression in E. coli |
| --- | --- |
| MSEIAMHVTAKPSSFQCNLKCDYCFYLEKESQFTHEKWMDDSTLKEFIKQYIAASGNQVYFTWQGGEPTLAGLDFFRKVIHYQQRYAGQKRIFNALQTNGILLNNEWCAFLKEHEFLVGISIDGPQELHDRYRRSNSGNGTFAKVIAAIERLKSYQVEFNTLTVINNVNVHYPLEVYHFLKSIGSKHMQFIELLETGTPNIDFSGHSENTFRIIDFSVPPTAYGKFMSTIFMQWVKNDVGEIFIRQFESFVSRFLGNGHTSCIFQESCKDNLVVESNGDIYECDHFVYPQYKLGNINKSELKTMNSVQLTAQKKRISAKCQQCAYKPICNGGCPKHRITKVNDETVSYFCEGYKILFSTMVPYMNAMVELAKNRVPLYHIMDVAKQMENN | not soluble |
| MNVLIIEDDPMVDFIHRNYLEKLNLFDRIISSDSMKAVQSILTDYAIDLILLDIHITDGNGIQFLEKWRTQHIPCEVIIISAANDGNIIRDGFHLGIIDYLIKPFTFERFQESIQQFVTHREHLANQQLEQAQIDQLKCLTSKKDTKNKQLLEKGLSESTFQWIMENIKVFDQPFTIQELASACHLSHVSVRKYIAYLEENKQLNSQQIFTKVGRPYRVYW | not soluble |
| MGSDKIHHHHHHMNFETVIGLEVHVELKTKSKIFSSSPTPFGAEANTQTSVIDLGYPGVLPVLNKEAVEFAMKAAMALNCEIATDTKFDRKNYFYPDNPKAYQISQFDKPIGENGWIEIEVGGKTKRIGITRLHLEEDAGKLTHTGDGYSLVDFNRQGTPLVEIVSEPDIRTPEEAYAYLEKLKSIIQYTGVSDCKMEEGSLRCDANISLRPIGQEEFGTKTELKNLNSFAFVQKGLEHEEKRQEQVLLSGGVIQQETRRYDEATKKTILMRVKEGSDDYRYFPEPDLVELYIDDEWKERVKASIPELPDERRKRYIEELGLPAYDAMVLTLTKEMADFFEETVQKGAEAKQASNWLMGEVSAYLNAEQKELADVALTPEGLAGMIKLIEKGTISSKIAKKVFKELIEKGGDAEKIVKEKGLVQISDEGVLLKLVTEALDNNPQSIEDFKNGKDRAIGFLVGQIMKASKGQANPPMVNKILLEEIKKR | not soluble |
| MSLKTVAVIGAMEQEIELLREMMENVKAVSFGRFSAYEGELAGKRMVLALSGIGKVNAAVATAWIIREFAADCVINTGSAGGLGKGLKVGDVVIGTETAHHDVDVTAFGYAWGQVPQLPARFASDGILIEAAKRAARTFEGAAVEQGLIVSGDRFVHSSEGVAEIRKHFPEVKAVEMEAAAIAQTCHQLETPFVIIRAVSDSADEKADISFDEFLKTAAANSAKMVAEIVKSL | soluble |
| GPGSMLRPSSLCRVAFPVHRDTTKTPRLVKEVGSWLYKRETVESFRAWCKANNVRGSGNVKVVSTMHYARCLRAARHLRPGQAIITLPHTACFNFLVVAKEMYGVSGKGGTVSHNFPLEVNWMNYDERCSFLRSASMSELTTAGWMCRIASLEESRFTPYIHWLLEDTRGRDGVANGVSRERGEESGLVDHYFSEMATDACEDPEEFLENLFRSFAALHLRAVPIESAAIRLFLPGTNFFKAKVDEMFVPTLMPLIDAVPQLEDGLHNTAVEYFPFSDEETLLKQCKDLVLSEGGTNEMRELRRRCLAQEQGAGAFFALRALCPIEEGDYLYVRGVPKLGAPEQESMTVRVMEANRLLNNE | not soluble |
| MGKVTIIAGGIKTESRLTGLTQLAANELVTNGLEVNIIEVHKINAEALVTADFAHSDIQLANSEIESSSGVIIATPIFKAAYSGVLKAYLDLLPLKALKGKVVLPLGLGGSNGHLLALQYALDPVLKELGAETILKGQFTVDKQIERLGDGLYEIESSAKERLDIALGQFISLLNQQSVEVLEHHHHHH | soluble |
| MAGASETYTHTLTDVPIDIKYDSDDYFISGYSYGADVYMSSVNRVKLDSEINEDTRKFKVVADLTNMKPGTHKVPLKVVNLPSGVNATVSPTTITVTMGKKKTKEFPLEHHHHHH | not soluble |
| MAAEGVRVEGDWSRLVETIRNLNLSKSELRMLNAQIAQIVAEGSKERFETEKSPEGERWEPLSPATLEARARRRTRRKDGTSGYRTKRGKLSKRAERIIASGRPLKDTGRLMRSIATKATAEAAVIGTNLVQAAIQQLGGKAGRGKKVEIPARPYLGVSSSEEADIMELINEFIRERIQ | not soluble |
| MHHHHHHSSGVDLGTENLYFQSMHGWGYGQDDGPSHWHKLYPIAQGDRQSPINIISSQAVYSPSLQPLELSYEACMSLSITNNGHSVQVDFNDSDDRTVVTGGPLEGPYRLKQFHFHWGKKHDVGSEHTVDGKSFPSELHLVHWNAKKYSTFGEAASAPDGLAVVGVFLETGDEHPSMNRLTDALYMVRFKGTKAQFSCFNPKCLLPASRHYWTYPGSLTTPPLSESVTWIVLREPICISERQMGKFRSLLFTSEDDERIHMVNNFRPPQPLKGRVVKASF | soluble |
| MSLGLTPHAPSPLADRLRPQSLDEVVGQQHLLGPEGPIGRMAAARRLASMILWGPPGTGKTTIARLLAKAGGYEFMQISAVFSGVADLKKAFEQARARRMAGQSTLLFVDEIHRFNRAQQDGFLPFVEEGIVTLVGATTENPSFELNGALLSRCQVFVLKRLTEESLELLLQRAEAAENRPLPIDAEARSALVAMADGDGRYLLTLAETLFSIGTDTPLNPTQLGQFLQKRRPAYDKDREEHYNLISALHKSVRGSDPDAALYWLARMLEGGEDPLFIARRLVRMASEDIGAADPLSLLLTTAAKDAYDFLGSPEGELALAQAVVHMASAPKSNAVYTAYKAARRAAKETGSLMPPSHILNAPTKLMKSLGYGDGYAYDHDVEGGVSGQNYFPDGMERRRFYEPKPVGAEAKVRERLEAWGKVRKDGKEGHHHHHH | soluble |
| SNRFIAVFSDITRHKQTEEDLLRSEQHYRLLHETMLQGVVYQDASGKIISMNPAAERILGKTPAEFLGSSSVGEEYLTIREDGSMFPGLEHPAMVSLRTGQKVQGVVMGVYNPRENFYRWININAVPIFRTGEDRPFQVYTLFDDI | not soluble |
| MVDSDDDGDRRRDKFARERRDEDYRRGGGGFNRYDNKRPGGRRDDYQVKRSRGDDADDSFDPVSRSGNGSDLPTESDSIYSGPLQTFKKFLTSQEDDISEEDAIKKYNEYKTEHRKHQLERFFRAHKDEEWFRLKYKPDDAKKLREAHLENVQKRLQVFNELKEQGQFNKFSLDFGDAEAIIRMLDSVVVKLENGTEDELKAVLAQKLEDESLADIKKDENGNGTEQPKEEPEVKQESGATEELEEGAIEDGTEKSSNKVNIHRTCSVFLRNIPPGLTYEELEGLCKKSPGFLRLALTDGIAERKFYRRGWATFKRDINIKEICWALNAHRLRETDLNAIINRDITRRVRTNNGIASHKQVAINDLKLAVKLTVLYDKKIGLFNAADEADADREMDIRMGVDLVAASTNPLIKEVKSLVPHDVLNDISEEEAELLGVSNGGEAPAEKIRFERDDNILKALDLLIVYLRIVHSIDFYNHGHYAQEDSMPNRCGLIHVRGQPPSGVSITTDEDGALVVPQKFVNDFISGFNSRIEKGLIEKQYVSEEELEKMGKKDGEKEVEAFIQKNTVELAKDKWLCPLSGKKFKGPEFIRKHLQSKHEDKLEEARAEADFFNNYLADAQRPVDCEPKQAPRDDHRGGGGGERGGYGRERDDDRGPGGGGRNSFGGGGYDRRPQFPPRHSLGGRGGGGRYFEDAPRRQPVSYRDLDAPDDIP | not soluble |
| MGSDKIHHHHHHILFELCFGLAVAQKNLGFIHNDLHSDNIMFKKCQQQFKYYQFHNKFFKVPTWCRETKVIDFARGILKVGKTTYFSDVFKNEGDAGGQYQYLNSQKNKKFNFHFDLARLATTIREFTENKKELQEIDNLLVDWCLNKNGDNFLEMDDDFSLYVMIASTADKCLPKDQIDNKIFRDFLISKEDIPAGEIIY | not soluble |
| MGSDKIHHHHHHMEQNAEKRSIVGDDNSTVKRQDTSPSKGIAHIKPEYIVPLKQNENQKVAIYDEEMSSDRMTNEFAGGTNKKNKNGRGKKRGQNKNRDNRQVKEQNVLCPRLIHGDISKCSFGDNCRFVHDINLYLSTKKPEVESNIFPSCPVFNSLGFCPMGFKCRFLSSHLNKEDNILISKKEIDPDAQTIWSVKGEVNHISPERKLDLIKRRFPFTKSNEILEIIDSFQQECRDSMKPEEEVESTPQLKKQDPDVEQPVAPQVEQRNKELSEHRMKQREVYLKYKDTRYFAQEKKPLDLYHKKIVSPLTTVGNLPYRRLMRKLGADVTYSEMALAVPLIQGTNSEWALPKAHTSEFPGFGVQVACSKAWQAAKAAEALANSVSEISEINLNSGCPIDLLYRQGSGSALLDNPARMIRCLNAMNYVSKDIPITVKIRTGTKEGHPIAEGLVKRLVNETDVAAITLHGRSRQQRYTKSADWDYVSQVADTLRSAEADFIETEQGKEGRDSKNRIQFVGNGDVNNFEDWYRYLNGNENIDSVMVARGALIKPWIFEEVESQQYLDKTSTERLDILRDYAQFSMEHWGTDEYGISQCRRFFCEFMSFFHRYVPWVFVKDTL | not soluble |
| IGKVKYNLGFNLYDAKTKITKYNNETGLFGKDKNDKDTYRVGMELGEIWGYVTDRLYTVDDFDADGKLKAGIPKVEGYNPNPGDILYKDLDDNDIINGGTSTTKDPGDRKIIGNSTRRYQYGIHGGANWKGVSLSFLLQGVGKRDLWIMNDLFYPHYDAWTTVYDTQLNYWTPERTDSYFPRLYEKAAGNTAANTRIQTRYLQDGSYLSIRNITLSYNFPSKWMTKIGVNNLAVFFSGENLYTFDHLPKGLDPERSVTDDLGQRGFTYPYMRQYSFGINLSF | not soluble |
| MDTLFSLKVFRQVVQSGGFTRAADALGISTAMASKHVSHLENTVQAKLLHRNSRNLSLTEAGEEYYRQCSYALDTLDDAAQKAAGGTEKPQGLLRVTMPLWFAGSQICNWLAEYRERYPEVALELILDNRHVDLIAEGVDLALRVSQTLSPSLIARPLAEIEFALLASPDFLRRNGVPETPEEVAGLPAVLPTYTNQQKLDLTRKSDGKKYRLELTPVIRTDNTLMMREMIKAGACIGYQPLWAAEHDLRCGTLVRLLPGYAVPTDRLNAVYADRAFLSAKVRSFIDFLNEKIASRKGCRNAV | not soluble |
| SEATKERVGLLDTILPPALADAGLEDCALPPESIQEAFRKAANAVKSRAASIFDHEEEDGCLADPIPETADKIIVGGDNERDTGPCLAGKGIEKLAESKQAGDLVVAGEGEEGKSCVDGLKDLDVEGIERSSEKKDQSDEDEEEEMKPILVEGFV | soluble |
| MNIKQFNEHITSLFGEHLHKYGDDEYGFTHISKDEFHKIGYTTNLTLETIEEAYRNGVDMIVTHHAPWSFLFGMEEACIEKLKQYEMNHFWVHLPLDFVKFGTCTSLFNGIGIDTILEYSTYEEEELPGIGEYKEAIPFSNLVGKLEERMEEKVKSWRNHDKPVKRIAILTGAGNNTNLIERALEKGCDTYITGEKTLYTVQHAKFKGINLIVGSHTFTEVFGVESLAHKLKERDNSIEITRLNEEHLELEHHHHHH | not soluble |
| MLAGLQKTTLVNFPRRVAAAVFLPGCNIRCPYCHNAELALASPSSFTANQESSNDYYELSEIYTFLERRKNLISGLVISGGEPFMSPALFELIERAKSLNLAVKIDTNGLFPERIEEVLRSSNLQPDMIAIDVKTSPERYGELLASKTDSAAKKAKTALLKTLDILKSNTEKTEVEYRTVLAPPLVSEDEIKKIASLLPKNARWRLAQFVPGTCLNPEWNSVEPYPLSQAQALTAIAKSLIPDTELR | not soluble |
| MQTDSLSPSPNPVSPVPLNNPTSAPRYGTVIPNRIFVGGIDFKTNESDLRKFFSQYGSVKEVKIVNDRAGVSKGYGFVTFETQEDAQKILQEAEKLNYKDKKLNIGPAIRKQQVGIPRSSIMPAAGTMYLTTSTGYPYTYHNGVAYFHTPEVTSVPPPWPSRSVCSSPVMVAQPIYQQPAYHYQATTQYLPGQWQWSVPQPSASSAPFLYLQPSEVIYQPVEIAQDGGCVPPPLSLMETSVPEPYSDHGVQATYHQVYAPSAITMPAPVMQPEPIKTVWSIHY | soluble |

From the DeepSol protein solubility set
